Reference: patent US20240158497A1 (published 2024)

B1: MAb16664 (antibody, V domains shown)
VH: QVQLVQSGTEVKKPGSSVKVSCKASGGTFSTYPINWVRQAPGQGLEWMGGIIPIFGTASYAQKFQGRVAITTDESTSTAYMELNSLRSEDTAVYYCARERPNWGSNDYWGQGTLVTVSS
VL: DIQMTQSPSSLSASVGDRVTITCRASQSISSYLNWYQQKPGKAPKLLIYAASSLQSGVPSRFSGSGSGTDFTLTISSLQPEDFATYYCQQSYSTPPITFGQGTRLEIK
notes: captured through anti-human Fc
B2: MAb16659 (antibody, V domains shown)
VH: QVQLVQSGPEVKKPGSSVKVSCKASGGTIDRNEITWVRQAPGQGLEWMGVIIPILGEAHYERKFQGRLTITMDESTSTAYMELSNLRSEDTAVYYCARERAARGYLDYWGQGTLVTVSS
VL: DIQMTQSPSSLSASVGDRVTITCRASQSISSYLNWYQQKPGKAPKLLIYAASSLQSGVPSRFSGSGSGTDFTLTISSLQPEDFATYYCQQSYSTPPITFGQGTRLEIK
notes: as for B1
B3: MAb16623 (antibody, V domains shown)
VH: EVQLVESGGGLVQPGGSLRLSCAASGLTFSSYEMNWVRQAPGKGLEWVSHISSAGSTKYYADSVKGRFTISRDNAKNSLFLQMNSLRAEDTAIYYCAGYNYAYYYFGVDVWGQGTTVTVSS
VL: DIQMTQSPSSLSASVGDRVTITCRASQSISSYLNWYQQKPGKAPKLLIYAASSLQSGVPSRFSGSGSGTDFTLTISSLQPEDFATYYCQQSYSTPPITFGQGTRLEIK
notes: as for B1
B4: MAb16656 (antibody, V domains shown)
VH: EVQLVESGGGLVQPGRSLRLSCAASGFTLDDFAMHWVRQAPGKGLEWVSGISWNSGNIGYADSVKGRFTISRDNARNSLYLQMNSLRAEDTALYYCTSGYYLYYAMDVWGQGTTVTVSS
VL: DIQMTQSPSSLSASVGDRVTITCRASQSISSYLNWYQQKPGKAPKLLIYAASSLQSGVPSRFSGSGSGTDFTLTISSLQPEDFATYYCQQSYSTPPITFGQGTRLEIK
notes: as for B1
B5: MAb16665 (antibody, V domains shown)
VH: QVQLVESGGGVVQPGRSLRLACAASGFTFRSYGMHWVRQAPGKGLEWVAVIWYDGSNKYYTDSVKGRFTISRDNSKNTLYLQMNSLRAEDTAMYYCAIDKWATVTTYLFDYWGQGTLVTVSS
VL: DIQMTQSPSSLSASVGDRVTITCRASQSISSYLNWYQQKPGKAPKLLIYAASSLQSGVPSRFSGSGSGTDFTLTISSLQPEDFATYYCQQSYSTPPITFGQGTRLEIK
notes: as for B1
B6: MAb16662 (antibody, V domains shown)
VH: EVQLVESGGGLVQPGGSLRLSCTASGFTFSNYAIFWVRQAPGKGLEYVSGISNNGVTKYYADSVRDRFTISRDNSRNTVSIQMDSLRTEDMAVYYCARENWGSDDGFDIWGQGTMVTVSS
VL: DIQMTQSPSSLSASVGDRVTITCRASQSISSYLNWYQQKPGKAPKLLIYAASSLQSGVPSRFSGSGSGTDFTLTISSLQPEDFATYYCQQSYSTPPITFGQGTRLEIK
notes: as for B1
B7: MAb16637 (antibody, V domains shown)
VH: QVQLVQSGAEVKKPGASVKVSCKASGYTFTSLGISWVRQAPGQGLEWMGWISAYSGNRDYAQKFQGRVTMTTDTSTSTAYMELRSLRSDDTAVYYCARSLRFDYWGQGTLVTVSS
VL: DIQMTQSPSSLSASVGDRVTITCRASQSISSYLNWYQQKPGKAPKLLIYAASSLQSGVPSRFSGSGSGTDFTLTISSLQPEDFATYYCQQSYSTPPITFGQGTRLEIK
notes: as for B1
B8: MAb16636 (antibody, V domains shown)
VH: QLQLQESGPGLVKPSETLSLICTVSGGSISSNNYYWGWIRQPPGKGLEWIGNLYGSGSTYYNPSLKSRVTISVDTSKNQFSLKLSFVTAADTAVYHCARWDTNGGAFDIWGQGTMVTVSS
VL: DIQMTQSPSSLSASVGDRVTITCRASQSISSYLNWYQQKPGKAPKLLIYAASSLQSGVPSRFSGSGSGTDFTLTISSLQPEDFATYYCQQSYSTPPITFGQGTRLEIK
notes: as for B1
B9: MAb16666 (antibody, V domains shown)
VH: EVQLVESGGGLVQSGGSLRLSCAASGFTFSRYEMNWVRQAPGKGLEWVAYISNTGTTRDYSDSVKGRFTISRDNAKNSLYLQMSSLRVEDTAVYYCVREKFSGTSDWFDPWGQGTLVTVSS
VL: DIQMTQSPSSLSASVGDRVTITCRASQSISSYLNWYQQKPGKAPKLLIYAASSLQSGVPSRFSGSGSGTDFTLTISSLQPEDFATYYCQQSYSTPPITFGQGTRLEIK
notes: as for B1
B10: MAb16669 (antibody, V domains shown)
VH: EVQLVESGGGLVQPGGSLRLSCAASGFTFSSYAMNWVRQAPGKGLEWVSAISGSGDSTYYTDSVKGRFTISRDNSKNTLYLQMNTLRAEDTAVYYCAKEEIVMLVGATPGWFDPWGQGTLVTVSS
VL: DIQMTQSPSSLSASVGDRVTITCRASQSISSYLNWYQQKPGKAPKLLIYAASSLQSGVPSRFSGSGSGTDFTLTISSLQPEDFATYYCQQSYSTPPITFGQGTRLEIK
notes: as for B1

Tests used:
[1] = molecular target: T1, human GP130 extracellular domain expressed with a C-terminal mouse IgG2a Fc tag (hGP130-mFc) (human); experiment: SPR Biacore, mAb captured via anti-hFc, 25 C
T1 construct: also called dimeric human GP130
T1 chain: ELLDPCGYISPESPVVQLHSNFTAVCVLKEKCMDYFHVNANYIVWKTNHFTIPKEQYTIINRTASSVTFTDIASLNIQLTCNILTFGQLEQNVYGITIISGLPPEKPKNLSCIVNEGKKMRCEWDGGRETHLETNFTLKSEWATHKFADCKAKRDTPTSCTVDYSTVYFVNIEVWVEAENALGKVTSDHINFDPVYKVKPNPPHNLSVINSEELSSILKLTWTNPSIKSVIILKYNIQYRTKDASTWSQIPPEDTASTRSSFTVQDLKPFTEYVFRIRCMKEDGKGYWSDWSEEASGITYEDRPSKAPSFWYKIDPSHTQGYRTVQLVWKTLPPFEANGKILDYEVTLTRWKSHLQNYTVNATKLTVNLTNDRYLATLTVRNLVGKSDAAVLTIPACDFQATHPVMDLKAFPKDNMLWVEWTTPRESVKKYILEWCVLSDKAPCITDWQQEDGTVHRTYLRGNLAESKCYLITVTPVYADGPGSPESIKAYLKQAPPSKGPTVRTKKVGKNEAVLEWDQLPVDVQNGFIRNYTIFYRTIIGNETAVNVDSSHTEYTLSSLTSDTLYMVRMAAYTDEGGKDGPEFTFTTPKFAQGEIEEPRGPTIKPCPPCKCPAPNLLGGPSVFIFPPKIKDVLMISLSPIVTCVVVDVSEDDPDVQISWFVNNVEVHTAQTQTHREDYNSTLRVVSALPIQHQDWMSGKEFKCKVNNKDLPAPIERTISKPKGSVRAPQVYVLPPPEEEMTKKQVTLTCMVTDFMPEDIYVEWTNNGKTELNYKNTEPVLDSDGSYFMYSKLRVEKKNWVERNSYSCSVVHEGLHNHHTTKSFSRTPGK
Experimental: (§1) Equilibrium dissociation constant (KD) for different GP130 reagents binding to purified anti-GP130 monoclonal antibodies were determined using a real-time surface plasmon resonance based Biacore 4000 biosensor. All binding studies were performed in 10 mM HEPES, 150 mM NaCl, 3 mM EDTA, and 0.05% v/v Surfactant Tween-20, pH 7.4 (HBS-ET) running buffer at 25° C. and 37° C. The Biacore sensor surface was first derivatized by amine coupling with a monoclonal mouse anti-human Fc antibody (GE, #BR-1008-39) to capture anti-GP130 monoclonal antibodies. […] Reagents tagged with “mmH” are monomeric, whereas reagents tagged with “mFc” are dimeric. Thus, for example, “hGP130-mmH” is also referred to as “monomeric human GP130,” and “hGP130-mFc” is also referred to as “dimeric human GP130.”
(§2) The association rate (k a) and dissociation rate (kd) were determined by fitting the real-time binding sensorgrams to a 1:1 binding model with mass transport limitation using Scrubber 2.0c curve-fitting software. Binding dissociation equilibrium constant (KD) and dissociative half-life (t ½) were calculated from the kinetic rates as: […]

[2] = molecular target: T2, mouse GP130 extracellular domain expressed with a C-terminal myc-myc-hexahistidine tag (mGP130-mmH) (mouse, UniProt Q00560 23-617); experiment: SPR Biacore, mAb captured via anti-hFc, 25 C
T2 construct: Monomeric; the entry includes the myc-myc-His tag
Experimental: as §1, §2

[3] = molecular target: T3, rat GP130 extracellular domain expressed with a C-terminal myc-myc-hexahistidine tag (rGP130-mmH) (rat, UniProt P40190 23-618); experiment: SPR Biacore, mAb captured via anti-hFc, 25 C
T3 construct: Monomeric; the entry includes the myc-myc-His tag
Experimental: as §1, §2

[4] = molecular target: T1, human GP130 extracellular domain …; experiment: SPR Biacore, mAb captured via anti-hFc, 37 C
Experimental: as §1, §2

[5] = molecular target: T2, mouse GP130 extracellular domain …; experiment: SPR Biacore, mAb captured via anti-hFc, 37 C
Experimental: as §1, §2

[6] = molecular target: T3, rat GP130 extracellular domain …; experiment: SPR Biacore, mAb captured via anti-hFc, 37 C
Experimental: as §1, §2

Binder | 100 nM Ag Bound (RU) [1] [RU] | Kd [1] [nM] | koff [1] [s⁻¹] | kon [1] [M⁻¹ s⁻¹] | t½ [1] [min] | 100 nM Ag Bound (RU) [2] [RU] | 100 nM Ag Bound (RU) [3] [RU] | binding result [3] | 100 nM Ag Bound (RU) [4] [RU] | Kd [4] [nM] | koff [4] [s⁻¹] | kon [4] [M⁻¹ s⁻¹] | t½ [4] [min] | 100 nM Ag Bound (RU) [5] [RU] | binding result [5] | 100 nM Ag Bound (RU) [6] [RU] | binding result [2]
B1 | 26 | 0.116 | 0.000354 | 3.05e+06 | 33 | 0 | 0 | no binding (tested: 100 nM) | 37 | 0.0815 | 0.000109 | 1.33e+06 | 106 | 1 | no binding (tested: 100 nM) | 0 | –
B2 | 186 | 0.0366 | 6.28e-05 | 1.72e+06 | 184 | 1 | 2 | no binding (tested: 100 nM) | 227 | 0.0249 | 4.76e-05 | 1.91e+06 | 243 | 1 | no binding (tested: 100 nM) | 1 | –
B3 | 184 | 0.468 | 0.000208 | 444000 | 56 | 0 | 0 | no binding (tested: 100 nM) | 224 | 0.56 | 0.000325 | 580000 | 36 | 0 | – | 0 | no binding (tested: 100 nM)
B4 | 98 | 1.68 | 0.000132 | 78100 | 88 | 0 | -1 | – | 123 | 1.7 | 0.000297 | 175000 | 39 | 0 | no binding (tested: 100 nM) | 0 | –
B5 | 158 | 2.72 | 0.00109 | 399000 | 11 | 0 | 0 | – | 172 | 3.92 | 0.00256 | 653000 | 5 | -1 | – | -1 | –
B6 | 90 | 0.772 | 0.000479 | 620000 | 24 | -1 | -1 | – | 114 | 4.15 | 0.00265 | 639000 | 4 | 1 | – | 1 | –
B7 | 189 | 0.647 | 0.00015 | 232000 | 77 | 1 | 0 | no binding (tested: 100 nM) | 246 | 0.65 | 0.000323 | 496000 | 36 | -1 | – | 0 | –
B8 | 91 | 1.92 | 0.000113 | 58800 | 102 | 0 | 1 | no binding (tested: 100 nM) | 136 | 1.2 | 0.000167 | 139000 | 69 | 0 | – | 0 | no binding (tested: 100 nM)
B9 | 253 | 0.12 | 0.000137 | 1.14e+06 | 85 | 1 | 1 | no binding (tested: 100 nM) | 285 | 0.298 | 0.00036 | 1.21e+06 | 32 | 0 | no binding (tested: 100 nM) | 1 | –
B10 | 40 | 8.21 | 0.000241 | 29300 | 48 | 0 | -2 | – | 59 | 5.85 | 0.00038 | 65100 | 30 | -1 | – | -2 | –
